The results in this text go back to patent publication US20250027060A1 (VIB VZW, published 2025).

Broadly, the Kd is the free concentration of one partner at which half of the binding sites on the other are occupied at equilibrium, for simple one-to-one binding. A higher Kd goes with weaker binding. As a reminder, the koff is the first-order rate constant of dissociation. A high value points to a short-lived complex. For orientation: kon means a measure of how fast the partners come together.

In assay [1] the target is T1, LTKTG-EGFL (human LTK amino acids 63-420) (human, UniProt P29376 63-420).
T1 construct: Fc-His6 tag removed by caspase 3; also called LTK (in BLI, SEC-MALLS and ITC)
T1 sequence: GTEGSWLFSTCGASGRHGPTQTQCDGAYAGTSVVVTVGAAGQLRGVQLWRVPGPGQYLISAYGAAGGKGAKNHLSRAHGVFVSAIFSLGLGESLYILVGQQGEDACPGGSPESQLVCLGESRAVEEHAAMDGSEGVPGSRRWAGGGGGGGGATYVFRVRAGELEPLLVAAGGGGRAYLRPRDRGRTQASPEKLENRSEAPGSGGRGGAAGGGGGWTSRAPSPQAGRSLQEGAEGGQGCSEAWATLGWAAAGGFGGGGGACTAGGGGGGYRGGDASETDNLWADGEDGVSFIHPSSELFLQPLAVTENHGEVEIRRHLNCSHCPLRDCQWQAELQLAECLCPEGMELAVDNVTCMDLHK
Put plainly: BLI, biotinylated ALKAL1 F76E on streptavidin biosensors, LTKTG-EGFL in solution, dilution series 6.4 µM-400 nM, biphasic fit, component 2. The source says: (§1) FIGS. 10A and 10B Representative response curves as measure by biolayer-interferometry (BLI) for the interaction of WT ALKAL1 and ALKAL1 mutants (containing charge-reversal mutations of residues involved in site 1) (FIG. 10A) and WT ALKAL2 and ALKAL2 mutants (FIG. 10B) with ALK_TG-EGFL and LTK_TG-EGFL. For WT ALKALs LTK curves were fitted with a 2:1 binding model (red) while for ALK a 1:1 model was used. Start and end concentrations of the 3-fold dilution series used for the WT measurements is shown as an inset while for all mutants a […] dilution series from 6.4 μM-400 nM was used.
(§2) All measurements of binding kinetics and dissociation constants were performed using an Octet Red 96 (Forté Bio) in assay buffer (20 mM HEPES pH 7.4, 150 mM NaCl, 0.02% (w/v) BSA, 0.002% (v/v) Tween 20) at 298K. ALKALs were immobilized to a level of 0.5 nm on streptavidin-coated biosensors (Forté Bio). To verify that no a specific binding was present during the assay, non-functionalized biosensors were used as a control by measuring in parallel all ligand concentrations as well as running buffer. For all mutants a two-fold dilution series from 6.4 μM-400 nM was employed. Data analysis was performed using the Data Analysis software 9.0.0.14 (Forté Bio) and binding curves were exported to Prism8 (Graphpad Software) for plotting of curves.
In general terms: BLI is a label-free optical method that tracks binding on a fibre tip over time.

In assay [2] the target is T1, LTKTG-EGFL (human LTK amino acids …). Put plainly: BLI, biotinylated ALKAL1 F76E on streptavidin biosensors, LTKTG-EGFL in solution, dilution series 6.4 µM-400 nM, biphasic fit, component 1.
From the text: as §1, §2

For assay [3] the target is unchanged. Put plainly: BLI, biotinylated ALKAL1 R115E on streptavidin biosensors, LTKTG-EGFL in solution, dilution series 6.4 µM-400 nM.
From the text: as §1, §2

Assay [4] concerns the target T2, LTKTG (human LTK amino acids 63-379) (human, UniProt P29376 63-379).
T2 construct: also called LTK TG supradomain
T2 sequence: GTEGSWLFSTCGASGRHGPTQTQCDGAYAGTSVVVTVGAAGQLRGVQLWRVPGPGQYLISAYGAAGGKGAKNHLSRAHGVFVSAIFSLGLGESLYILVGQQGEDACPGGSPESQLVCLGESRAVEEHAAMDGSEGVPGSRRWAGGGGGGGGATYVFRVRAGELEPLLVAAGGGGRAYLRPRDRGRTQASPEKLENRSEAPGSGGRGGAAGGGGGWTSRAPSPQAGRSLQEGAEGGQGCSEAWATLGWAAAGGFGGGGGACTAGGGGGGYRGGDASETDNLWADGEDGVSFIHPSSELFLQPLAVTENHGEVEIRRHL
Put plainly: ITC at 310 K, LTKTG (10 µM) titrated with ALKAL1FL (40 µM), one-site model. As for the experimental part: FIG. 12H, ITC experiments for the titration of LTKTG (10 μM) with ALKAL1FL (40 μM) Standard deviations were calculated based on 2 measurements.
(§3) Experiments were performed using a MicroCal PEAQ-ITC instrument at 310K. Proteins used in ITC experiments were expressed in HEK293S cells grown in suspension. As a final purification step all proteins were buffer exchanged to the same HBS buffer via size-exclusion chromatography. Titrations were preceded by an initial injection of 0.5 μL. The injection spacing was optimized per experiment to allow for the signal to get back to a stable baseline. Throughout the titration the sample was stirred at a speed of 750 r.p.m. Data were analyzed using the PEAQ-ITC analysis software (version 1.1.0.1262, Malvern) and fit using a “one set of sites” model.

In assay [5] the target is T1, LTKTG-EGFL (human LTK amino acids …). Put plainly: ITC at 310 K, LTKTG-EGFL (7.2 µM) titrated with ALKAL1FL (55 µM), one-site model. How it is done:
The right panel represents the binding isotherm obtained from the integration of the raw data and fitted to a one-site model. Standard deviations were calculated based on 3 measurements.
as §3

Assay [6] has the same target. Put plainly: BLI, biotinylated ALKAL2 F97E on streptavidin biosensors, LTKTG-EGFL in solution, dilution series 6.4 µM-400 nM; only component 1 is printed.
From the text: as §1, §2

For assay [7], the target named is T3, ALKTG-EGFL (human ALK amino acids 648-1025) (human, UniProt Q9UM73 648-1025, N-linked glycans; EndoH-trimmed (deglycosylated) for crystals and SEC-MALLS).
T3 construct: The C-terminal Fc-His6 tag was removed by caspase 3; also called ALK (in BLI, SEC-MALLS and ITC)
T3 sequence (Q9UM73 648-1025): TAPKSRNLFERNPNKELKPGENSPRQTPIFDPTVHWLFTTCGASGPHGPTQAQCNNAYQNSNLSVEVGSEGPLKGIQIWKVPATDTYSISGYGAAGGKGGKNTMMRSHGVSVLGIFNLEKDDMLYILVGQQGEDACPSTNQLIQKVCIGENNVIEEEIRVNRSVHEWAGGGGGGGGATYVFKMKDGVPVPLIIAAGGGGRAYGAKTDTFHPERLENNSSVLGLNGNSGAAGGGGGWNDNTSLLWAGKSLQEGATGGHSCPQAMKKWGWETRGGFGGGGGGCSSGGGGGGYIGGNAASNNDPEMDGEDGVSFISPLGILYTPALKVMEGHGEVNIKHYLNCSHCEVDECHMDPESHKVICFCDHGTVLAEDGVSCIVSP
Put plainly: BLI, biotinylated ALKAL2 F97E on streptavidin biosensors, ALKTG-EGFL in solution.
From the text: as §1, §2

Assay [8] deals with T1, LTKTG-EGFL (human LTK amino acids …). Put plainly: BLI, biotinylated ALKAL2 R136E on streptavidin biosensors, LTKTG-EGFL in solution, dilution series 6.4 µM-400 nM.
From the text: as §1, §2

Assay [9] has as its target T3, ALKTG-EGFL (human ALK amino acids …). Put plainly: BLI, biotinylated ALKAL2 R136E on streptavidin biosensors, ALKTG-EGFL in solution, dilution series 6.4 µM-400 nM.
From the text: as §1, §2

Changes are numbered by the printed parent chain. Names and notes keep the numbering of the source.

B1: ALKAL1^F76E (residues 57-129) (ligand, human, UniProt Q6UXT8 57-129, looked up)
chain: PSGSRSAEIFPRDSNLKDKEIKHFTGPVTFSPECSKHFHRLYYNTRECSTPAYYKRCARLLTRLAVSPLCSQT
notes: range 57-129; Avi-tagged and biotinylated in BLI; used as purified protein in SEC-MALLS and Ba/F3 assays; also called ALKAL1 site 2 mutant
In [1], B1 had a dissociation constant Kd of 1500 nM, a koff of 0.11 s⁻¹ and a kon of 60000 M⁻¹ s⁻¹. In assay [2], this molecule registered a Kd of 350 nM, a koff of 0.0005 s⁻¹ and a kon of 4000 M⁻¹ s⁻¹.

B2: ALKAL1^R115E (residues 57-129) (ligand, human, UniProt Q6UXT8 57-129, looked up)
chain: B1 chain with E20F, R59E
notes: range 57-129; also called ALKAL1 site 1 mutant R115E
In [3], B2 registered a Kd of 3100 nM, a koff of 0.041 s⁻¹ and a kon of 13000 M⁻¹ s⁻¹.

B3: ALKAL1FL (full-length ALKAL1, residues 28-129) (ligand, human, UniProt Q6UXT8 28-129, looked up)
chain: RPRGRRGARVTDKEPKPLLFLPAAGAGRTPSGSRSAEIFPRDSNLKDKFIKHFTGPVTFSPECSKHFHRLYYNTRECSTPAYYKRCARLLTRLAVSPLCSQT
notes: range 28-129; Sumostar tag removed by caspase 3
In the case of B3, in [4], the Kd worked out at 24 nM, the ΔG is -10.8 kcal/mol and the ΔH is -29.6 kcal/mol. For the same molecule, in [5], the dissociation constant Kd worked out at 11 nM, the ΔG was -11.3 kcal/mol and the ΔH is -31.7 kcal/mol.

B4: ALKAL2^F97E (residues 78-152) (ligand, human, UniProt Q6UX46 78-152, looked up)
chain: PSPEQRVEIVPRDLRMKDKELKHLTGPLYFSPKCSKHFHRLYHNTRDCTIPAYYKRCARLLTRLAVSPVCMEDKQ
notes: range 78-152; Avi-tagged and biotinylated in BLI; used as purified protein in SEC-MALLS and Ba/F3 assays; also called ALKAL2 site 2 mutant F97E
As to B4, in assay [6], the affinity, expressed as Kd, was 8400 nM; the koff stood at 0.16 s⁻¹; the kon stood at 53000 M⁻¹ s⁻¹. In assay [7], this molecule displayed a Kd of 200 nM, a koff of 0.071 s⁻¹ and a kon of 450000 M⁻¹ s⁻¹.

B5: ALKAL2^R136E (residues 78-152) (ligand, human, UniProt Q6UX46 78-152, looked up)
chain: B4 chain with E20F, R59E
notes: range 78-152; also called ALKAL2 site 1 mutant R136E
As to B5, in assay [8], the Kd turned out to be 5900 nM, the koff turned out to be 0.12 s⁻¹ and the kon turned out to be 20000 M⁻¹ s⁻¹. Moreover, in [9], the affinity, expressed as Kd, was 1500 nM and the koff is 0.8 s⁻¹.
